Where “and” joins values, the source holds several entries; their conditions need not be identical. Equal entries are not always repeated.
Details: Myxococcus xanthus, Thermal, DSC, reversible: yes, whole UniProt chain shown
[1] = pH 3, glycine-HCl 20 mM, CaCl2 3 mM
[2] = pH 6, Sodium cacodylate 20 mM, CaCl2 3 mM

B1: Development-specific protein S wild type, P02966 (protein)
chain: MANITVFYNEDFQGKQVDLPPGNYTRAQLAALGIENNTISSVKVPPGVKAILYQNDGFAGDQIEVVANAEELGPLNNNVSSIRVISVPVQPRARFFYKEQFDGKEVDLPPGQYTQAELERYGIDNNTISSVKPQGLAVVLFKNDNFSGDTLPVNSDAPTLGAMNNNTSSIRIS
pH 1.5, glycine-HCl 20 mM, CaCl2 3 mM
  unfolding enthalpy (calorimetric): 51.9 kcal/mol and 44.5 kcal/mol
pH 1.5, glycine-HCl 20 mM
  unfolding enthalpy (calorimetric): 48.8 kcal/mol and 42.8 kcal/mol
pH 1.75, glycine-HCl 20 mM, CaCl2 3 mM
  unfolding enthalpy (calorimetric): 50.9 kcal/mol and 46.9 kcal/mol
pH 2, glycine-HCl 20 mM, CaCl2 3 mM
  unfolding enthalpy (calorimetric): 58.6 kcal/mol and 49.2 kcal/mol and 50.2 kcal/mol
pH 2, glycine-HCl 20 mM
  Tm: 47.9 °C
  unfolding enthalpy (calorimetric): 55.2 kcal/mol
pH 2.25, glycine-HCl 20 mM, CaCl2 3 mM
  unfolding enthalpy (calorimetric): 66 kcal/mol and 55.2 kcal/mol and 54.5 kcal/mol
pH 2.25, glycine-HCl 20 mM
  Tm: 38.3 °C
  unfolding enthalpy (calorimetric): 65.7 kcal/mol
pH 2.5, glycine-HCl 20 mM, CaCl2 3 mM
  unfolding enthalpy (calorimetric): 77 kcal/mol and 59 kcal/mol and 60.5 kcal/mol
[1]
  Tm: 55 °C and 57.3 °C and 59 °C
  unfolding enthalpy (calorimetric): 94.2 kcal/mol and 77.2 kcal/mol and 62.1 kcal/mol
pH 3, glycine-HCl 20 mM
  Tm: 53.7 °C and 54.6 °C
  unfolding enthalpy (calorimetric): 89.2 kcal/mol and 69.5 kcal/mol
[2]
  Tm: 70.1 °C
  unfolding enthalpy (calorimetric): 79.1 kcal/mol
pH 6, Sodium cacodylate 20 mM
  Tm: 68.9 °C
  unfolding enthalpy (calorimetric): 67.9 kcal/mol
pH 9, glycine-NaOH 20 mM
  unfolding enthalpy (calorimetric): 83.7 kcal/mol and 66.4 kcal/mol and 65 kcal/mol

— FireProtDB (doi:10.1006/jmbi.1999.3146)
